Kd, koff and kon data for 13 molecules are collected here from patent US20240209076A1 (KODIAK SCIENCES, published 2024).

B1: anti-IL-6 antibody, heavy chain A49T, light chain WT (antibody, IgG1, V domains shown)
VH: EVQLVESGGGLVQPGGSLRLSCAASGFTFSPFAMSWVRQAPGKGLEWVTKISPGGSWTYYSDTVTGRFTFSLDTSKSTAYLQMNSLRAEDTAVYYCARQLWGYYALDIWGQGTLVTVSS
VL: DIQLTQSPSSLSASVGDRVTITCSASISVSYMYWYQQKPGKAPKLLIYDMSNLASGVPSRFSGSGSGTDFTLTISSLQPEDFATYYCMQWSGYPYTFGQGTKVEIK
notes: Full IgG1 tested; V domains derived as in m2
B2: anti-IL-6 antibody, heavy chain A97V, light chain WT (antibody, IgG1, V domains shown)
VH: EVQLVESGGGLVQPGGSLRLSCAASGFTFSPFAMSWVRQAPGKGLEWVAKISPGGSWTYYSDTVTGRFTFSLDTSKSTAYLQMNSLRAEDTAVYYCVRQLWGYYALDIWGQGTLVTVSS
VL: DIQLTQSPSSLSASVGDRVTITCSASISVSYMYWYQQKPGKAPKLLIYDMSNLASGVPSRFSGSGSGTDFTLTISSLQPEDFATYYCMQWSGYPYTFGQGTKVEIK
notes: as for B1
B3: anti-IL-6 antibody, heavy chain A105H, light chain WT (antibody, IgG1, V domains shown)
VH: EVQLVESGGGLVQPGGSLRLSCAASGFTFSPFAMSWVRQAPGKGLEWVAKISPGGSWTYYSDTVTGRFTFSLDTSKSTAYLQMNSLRAEDTAVYYCARQLWGYYHLDIWGQGTLVTVSS
VL: DIQLTQSPSSLSASVGDRVTITCSASISVSYMYWYQQKPGKAPKLLIYDMSNLASGVPSRFSGSGSGTDFTLTISSLQPEDFATYYCMQWSGYPYTFGQGTKVEIK
notes: as for B1
B4: anti-IL-6 antibody, heavy chain F27V, light chain WT (antibody, IgG1, V domains shown)
VH: EVQLVESGGGLVQPGGSLRLSCAASGVTFSPFAMSWVRQAPGKGLEWVAKISPGGSWTYYSDTVTGRFTFSLDTSKSTAYLQMNSLRAEDTAVYYCARQLWGYYALDIWGQGTLVTVSS
VL: DIQLTQSPSSLSASVGDRVTITCSASISVSYMYWYQQKPGKAPKLLIYDMSNLASGVPSRFSGSGSGTDFTLTISSLQPEDFATYYCMQWSGYPYTFGQGTKVEIK
notes: as for B1
B5: anti-IL-6 antibody, heavy chain F27G, light chain WT (antibody, IgG1, V domains shown)
VH: EVQLVESGGGLVQPGGSLRLSCAASGGTFSPFAMSWVRQAPGKGLEWVAKISPGGSWTYYSDTVTGRFTFSLDTSKSTAYLQMNSLRAEDTAVYYCARQLWGYYALDIWGQGTLVTVSS
VL: DIQLTQSPSSLSASVGDRVTITCSASISVSYMYWYQQKPGKAPKLLIYDMSNLASGVPSRFSGSGSGTDFTLTISSLQPEDFATYYCMQWSGYPYTFGQGTKVEIK
notes: as for B1
B6: anti-IL-6 antibody, heavy chain F27P, light chain WT (antibody, IgG1, V domains shown)
VH: EVQLVESGGGLVQPGGSLRLSCAASGPTFSPFAMSWVRQAPGKGLEWVAKISPGGSWTYYSDTVTGRFTFSLDTSKSTAYLQMNSLRAEDTAVYYCARQLWGYYALDIWGQGTLVTVSS
VL: DIQLTQSPSSLSASVGDRVTITCSASISVSYMYWYQQKPGKAPKLLIYDMSNLASGVPSRFSGSGSGTDFTLTISSLQPEDFATYYCMQWSGYPYTFGQGTKVEIK
notes: as for B1
B7: anti-IL-6 antibody, heavy chain Q99A, light chain WT (antibody, IgG1, V domains shown)
VH: EVQLVESGGGLVQPGGSLRLSCAASGFTFSPFAMSWVRQAPGKGLEWVAKISPGGSWTYYSDTVTGRFTFSLDTSKSTAYLQMNSLRAEDTAVYYCARALWGYYALDIWGQGTLVTVSS
VL: DIQLTQSPSSLSASVGDRVTITCSASISVSYMYWYQQKPGKAPKLLIYDMSNLASGVPSRFSGSGSGTDFTLTISSLQPEDFATYYCMQWSGYPYTFGQGTKVEIK
notes: as for B1
B8: anti-IL-6 antibody, heavy chain F27S, light chain WT (antibody, IgG1, V domains shown)
VH: EVQLVESGGGLVQPGGSLRLSCAASGSTFSPFAMSWVRQAPGKGLEWVAKISPGGSWTYYSDTVTGRFTFSLDTSKSTAYLQMNSLRAEDTAVYYCARQLWGYYALDIWGQGTLVTVSS
VL: DIQLTQSPSSLSASVGDRVTITCSASISVSYMYWYQQKPGKAPKLLIYDMSNLASGVPSRFSGSGSGTDFTLTISSLQPEDFATYYCMQWSGYPYTFGQGTKVEIK
notes: as for B1
B9: anti-IL-6 antibody, heavy chain A105Q, light chain WT (antibody, IgG1, V domains shown)
VH: EVQLVESGGGLVQPGGSLRLSCAASGFTFSPFAMSWVRQAPGKGLEWVAKISPGGSWTYYSDTVTGRFTFSLDTSKSTAYLQMNSLRAEDTAVYYCARQLWGYYQLDIWGQGTLVTVSS
VL: DIQLTQSPSSLSASVGDRVTITCSASISVSYMYWYQQKPGKAPKLLIYDMSNLASGVPSRFSGSGSGTDFTLTISSLQPEDFATYYCMQWSGYPYTFGQGTKVEIK
notes: as for B1
B10: anti-IL-6 antibody, heavy chain G102D, light chain WT (antibody, IgG1, V domains shown)
VH: EVQLVESGGGLVQPGGSLRLSCAASGFTFSPFAMSWVRQAPGKGLEWVAKISPGGSWTYYSDTVTGRFTFSLDTSKSTAYLQMNSLRAEDTAVYYCARQLWDYYALDIWGQGTLVTVSS
VL: DIQLTQSPSSLSASVGDRVTITCSASISVSYMYWYQQKPGKAPKLLIYDMSNLASGVPSRFSGSGSGTDFTLTISSLQPEDFATYYCMQWSGYPYTFGQGTKVEIK
notes: as for B1
B11: anti-IL-6 antibody, heavy chain D62F, light chain WT (antibody, IgG1, V domains shown)
VH: EVQLVESGGGLVQPGGSLRLSCAASGFTFSPFAMSWVRQAPGKGLEWVAKISPGGSWTYYSFTVTGRFTFSLDTSKSTAYLQMNSLRAEDTAVYYCARQLWGYYALDIWGQGTLVTVSS
VL: DIQLTQSPSSLSASVGDRVTITCSASISVSYMYWYQQKPGKAPKLLIYDMSNLASGVPSRFSGSGSGTDFTLTISSLQPEDFATYYCMQWSGYPYTFGQGTKVEIK
notes: as for B1
B12: anti-IL-6 antibody, heavy chain F27R, light chain WT (antibody, IgG1, V domains shown)
VH: EVQLVESGGGLVQPGGSLRLSCAASGRTFSPFAMSWVRQAPGKGLEWVAKISPGGSWTYYSDTVTGRFTFSLDTSKSTAYLQMNSLRAEDTAVYYCARQLWGYYALDIWGQGTLVTVSS
VL: DIQLTQSPSSLSASVGDRVTITCSASISVSYMYWYQQKPGKAPKLLIYDMSNLASGVPSRFSGSGSGTDFTLTISSLQPEDFATYYCMQWSGYPYTFGQGTKVEIK
notes: as for B1
B13: anti-IL-6 antibody, heavy chain L106I, light chain WT (antibody, IgG1, V domains shown)
VH: EVQLVESGGGLVQPGGSLRLSCAASGFTFSPFAMSWVRQAPGKGLEWVAKISPGGSWTYYSDTVTGRFTFSLDTSKSTAYLQMNSLRAEDTAVYYCARQLWGYYAIDIWGQGTLVTVSS
VL: DIQLTQSPSSLSASVGDRVTITCSASISVSYMYWYQQKPGKAPKLLIYDMSNLASGVPSRFSGSGSGTDFTLTISSLQPEDFATYYCMQWSGYPYTFGQGTKVEIK
notes: as for B1

T1 sequence (P05231 30-212 limits assumed): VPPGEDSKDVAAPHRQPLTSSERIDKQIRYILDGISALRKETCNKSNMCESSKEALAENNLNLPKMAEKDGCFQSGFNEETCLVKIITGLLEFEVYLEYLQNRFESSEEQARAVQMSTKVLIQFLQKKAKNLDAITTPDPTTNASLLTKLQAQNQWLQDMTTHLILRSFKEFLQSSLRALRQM

This experiment addresses T1, recombinant human IL-6 (human, UniProt P05231 30-212).
T1 construct: Flowed in solution over the captured antibodies
The experiment in a line: SPR (Biacore), supernatant IgG on Protein A, 25 C. How it is done: Antibodies were captured on a Protein A chip (GE) by injecting 1:20 dilution of cell supernatant at 10 μL/min for 60 seconds. […] The sensor chip was regenerated by a 60 seconds injection of 10 mM Glycine pH 1.7 at flow rate of 50 μL/min. […] For this setup, 1 μg/mL of purified antibody was injected over a Protein A chip at 10 μL/min for 25-28 seconds. Data analysis for supernatant and purified samples were performed using BIAevaluation software (GE). All sensorgrams were double reference subtracted and fit using a 1:1 Langmuir binding model.
Consider B1, for which the Kd (in general, the equilibrium constant for the complex coming apart) was determined as 0.337 nM; the koff – broadly, the first-order rate constant of dissociation – turned out to be 0.000151 s⁻¹; the kon (in general, a measure of how fast the partners come together) amounted to 448000 M⁻¹ s⁻¹.
The corresponding values for B2 are 0.574 nM, 0.000179 s⁻¹ and 311000 M⁻¹ s⁻¹.
Turning to B3, the Kd worked out at 1.79 nM, the koff came out at 0.000723 s⁻¹ and the kon was found to be 404000 M⁻¹ s⁻¹.
The corresponding values for B4 are 0.442 nM, 0.000208 s⁻¹ and 470000 M⁻¹ s⁻¹.
B5: the dissociation constant (Kd) was found to be 0.24 nM, the dissociation rate constant (koff) was 0.000206 s⁻¹ and the kon is 856000 M⁻¹ s⁻¹.
The corresponding values for B6 are 0.344 nM, 0.000196 s⁻¹ and 570000 M⁻¹ s⁻¹.
The corresponding values for B7 are 2 nM, 0.000737 s⁻¹ and 368000 M⁻¹ s⁻¹.
For B8 the same measures were 0.278 nM, 0.000203 s⁻¹ and 731000 M⁻¹ s⁻¹.
Turning to B9, the Kd amounted to 1.04 nM, the off-rate constant (koff) was 0.000493 s⁻¹ and the kon is 474000 M⁻¹ s⁻¹.
The corresponding values for B10 are 1.33 nM, 0.0006 s⁻¹ and 452000 M⁻¹ s⁻¹.
The corresponding values for B11 are 0.35 nM, 0.000147 s⁻¹ and 420000 M⁻¹ s⁻¹.
The corresponding values for B12 are 0.415 nM, 0.000209 s⁻¹ and 503000 M⁻¹ s⁻¹.
In the case of B13, the Kd is 0.279 nM, the koff amounted to 0.000134 s⁻¹ and the kon came to 479000 M⁻¹ s⁻¹.
